Three molecules from patent publication US7045613B2, “IKK-αproteins, nucleic acids and methods” (Amgen, Inc., priority 1997, dated 2006) can be followed below.

One experiment concerns the target T1, NIK (Homo sapiens, UniProt Q99558).
T1 construct: expressed in transfected cells; host or cells: 293 human embryonic kidney cells
The experiment can be described thus: Coimmunoprecipitation with Myc-tagged NIK in 293 cells. In kind it is binding. The conditions noted are these: Flag-tagged protein coexpressed with Myc-NIK, anti-Flag immunoprecipitation. An excerpt:
(§1) The interaction of IKK-α with NIK was confirmed in mammalian cell coimmunoprecipitation assays. Human IKK-α containing an N-terminal Flag epitope tag was transiently coexpressed in 293 human embryonic kidney cells with Myc epitope-tagged NIK or HA epitope-tagged TRAF proteins. Cell lysates were immunoprecipitated using a monoclonal antibody against the Flag epitope, and coprecipitating NIK or TRAF proteins were detected by immunoblot analysis with an anti-Myc or anti-HA monoclonal antibodies.

Experiment [1] has as its system NF-κB-dependent reporter gene. The experiment can be described thus: NF-κB-dependent reporter gene assay, 293 cells. The format is cell-based, human. The conditions noted are these: overexpression in 293 cells. An excerpt:
(§2) To investigate a possible role for IKK-α in NF-κB activation, we examined if transient overexpression of IKK-α might activate an NF-κB-dependent reporter gene. An E-selectin-luciferase reporter construct (Schindler and Baichwal, 1994) and a IKK-α expression vector were cotransfected into HeLa cells. IKK-α expression activated the reporter gene in a dose-dependent manner, with a maximal induction of luciferase activity of about 6 to 7-fold compared to vector control. Similar results were obtained in 293 cells, where IKK-α overexpression induced reporter gene activity approximately 4-fold. […] Thus, IKK-α induces NF-κB activation when overexpressed.
Overexpression of IKK-α(307-745) blocked TNF- and IL-1-induced reporter gene activation similar to overexpression of NIK(624-947). IKK-α(307-745) was also found to inhibited NF-κB-dependent reporter gene activity elicited by overexpression of TRAF2, TRAF6 and NIK.

The test system of a further experiment is TRAF2. The experiment is described as follows: Coimmunoprecipitation with HA-tagged TRAF2 in 293 cells. The format is binding, human.
Text: as §1

The target of another experiment is T2, TRAF3 (Homo sapiens, UniProt Q13114).
T2 construct: expressed in transfected cells; host or cells: 293 human embryonic kidney cells
T2 sequence (Q13114 1-568): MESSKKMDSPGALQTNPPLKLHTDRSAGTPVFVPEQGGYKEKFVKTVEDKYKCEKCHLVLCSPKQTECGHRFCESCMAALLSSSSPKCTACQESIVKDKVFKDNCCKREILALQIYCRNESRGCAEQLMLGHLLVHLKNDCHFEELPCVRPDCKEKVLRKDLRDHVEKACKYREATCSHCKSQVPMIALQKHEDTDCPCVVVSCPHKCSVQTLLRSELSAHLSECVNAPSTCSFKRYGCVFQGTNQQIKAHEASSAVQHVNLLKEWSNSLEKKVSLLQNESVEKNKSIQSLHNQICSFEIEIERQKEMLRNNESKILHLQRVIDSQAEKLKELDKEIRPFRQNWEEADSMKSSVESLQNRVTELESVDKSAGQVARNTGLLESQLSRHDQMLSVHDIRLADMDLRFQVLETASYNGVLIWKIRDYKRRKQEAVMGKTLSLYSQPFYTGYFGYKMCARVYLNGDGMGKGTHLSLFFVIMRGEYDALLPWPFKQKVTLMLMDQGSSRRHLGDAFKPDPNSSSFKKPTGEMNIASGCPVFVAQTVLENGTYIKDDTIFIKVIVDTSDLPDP
The experiment can be described thus: Coimmunoprecipitation with HA-tagged TRAF3 in 293 cells. The format is binding. The conditions noted are these: Flag-tagged protein coexpressed with HA-TRAF3.
Text: as §1

The test system of experiment [2] is NF-κB-dependent reporter gene. The experiment can be described thus: E-selectin-luciferase NF-κB-dependent reporter gene assay, HeLa cells. The settings on record: transient overexpression in HeLa cells, compared to vector control. The format is cell-based, human.
Text: as §2
In general terms: In a reporter assay the amount or activity of a reporter protein is the signal.

T1 sequence (Q99558 whole entry): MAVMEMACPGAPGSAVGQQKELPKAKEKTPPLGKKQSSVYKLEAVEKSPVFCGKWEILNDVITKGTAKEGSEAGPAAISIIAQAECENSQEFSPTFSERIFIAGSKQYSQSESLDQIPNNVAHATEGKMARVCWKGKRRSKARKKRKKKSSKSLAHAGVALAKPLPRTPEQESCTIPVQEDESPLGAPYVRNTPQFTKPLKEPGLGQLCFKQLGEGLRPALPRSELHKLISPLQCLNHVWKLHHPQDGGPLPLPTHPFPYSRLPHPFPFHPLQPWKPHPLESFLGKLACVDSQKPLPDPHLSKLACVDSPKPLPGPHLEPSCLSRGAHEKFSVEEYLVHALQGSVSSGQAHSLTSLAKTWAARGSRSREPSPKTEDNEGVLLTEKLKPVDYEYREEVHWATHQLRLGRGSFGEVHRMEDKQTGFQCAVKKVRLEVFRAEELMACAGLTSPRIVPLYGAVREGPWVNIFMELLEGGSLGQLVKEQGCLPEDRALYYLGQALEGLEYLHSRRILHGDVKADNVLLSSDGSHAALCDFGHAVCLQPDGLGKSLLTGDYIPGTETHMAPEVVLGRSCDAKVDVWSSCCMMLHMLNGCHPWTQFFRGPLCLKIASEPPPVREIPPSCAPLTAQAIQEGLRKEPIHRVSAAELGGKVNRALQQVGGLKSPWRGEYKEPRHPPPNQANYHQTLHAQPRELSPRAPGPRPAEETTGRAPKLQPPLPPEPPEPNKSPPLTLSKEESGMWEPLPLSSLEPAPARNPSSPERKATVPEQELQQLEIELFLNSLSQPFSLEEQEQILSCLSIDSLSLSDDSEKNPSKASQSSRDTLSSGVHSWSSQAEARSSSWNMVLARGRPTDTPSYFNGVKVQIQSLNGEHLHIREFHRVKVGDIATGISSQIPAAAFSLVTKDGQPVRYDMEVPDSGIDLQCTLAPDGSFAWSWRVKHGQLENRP

B1: IKK-α(307-745): deletion mutant IKK-α protein lacking most of the N-terminal kinase domain; kinase-inactive (protein)
chain: ILNLKIVHILNMTSAKIISFLLPPDESLHSLQSRIERETGINTGSQELLSETGISLDPRKPASQCVLDGVRGCDSYMVYLFDKSKTVYEGPFASRSLSDCVNYIVQDSKIQLPIIQLRKVWAEAVHYVSGLKEDYSRLFQGQRAAMLSLLRYNANLTKMKNTLISASQQLKAKLEFFHKSIQLDLERYSEQMTYGISSEKMLKAWKEMEEKAIHYAEVGVIGYLEDQIMSLHAEIMELQKSPYGRRQGDLMESLEQRAIDLYKQLKHRPSDHSYSDSTEMVKIIVHTVQSQDRVLKELFGHLSKLLGCKQKIIDLLPKVEVALSNIKEADNTVMFMQGKRQKEIWHLLKIACTQSSARSLVGSSLEGAVTPQTSAWLPPTSAEHDHSLSCVVTPQDGETSAQMIEENLNCLGHLSTIIHEANEEQGNSMMNLDWSWLTE
As to B1, in the experiment with NIK, the “coprecipitation / association with NIK” value was “able to associate with NIK”. Also, in experiment [1], the “NF-κB-dependent reporter gene activity elicited by overexpression of TRAF2, TRAF6 and NIK” value is given as “inhibited”; the “TNF- and IL-1-induced reporter gene activation” value is given as “blocked”.

B2: IKK-α: novel human IκB kinase, full conceptual translate SEQ ID NO:4 (protein)
chain: MERPPGLRPGAGGPWEMRERLGTGGFGNVCLYQHRELDLKIAIKSCRLELSTKNRERWCHEIQIMKKLNHANVVKACDVPEELNILIHDVPLLAMEYCSGGDLRKLLNKPENCCGLKESQILSLLSDIGSGIRYLHENKIIHRDLKPENIVLQDVGGKIIHKIIDLGYAKDVDQGSLCTSFVGTLQYLAPELFENKPYTATVDYWSFGTMVFECIAGYRPFLHHLQPFTWHEKIKKKDPKCIFACEEMSGEVRFSSHLPQPNSLCSLIVEPMENWLQLMLNWDPQQRGGPVDLTLKQPRCFVLMDHILNLKIVHILNMTSAKIISFLLPPDESLHSLQSRIERETGINTGSQELLSETGISLDPRKPASQCVLDGVRGCDSYMVYLFDKSKTVYEGPFASRSLSDCVNYIVQDSKIQLPIIQLRKVWAEAVHYVSGLKEDYSRLFQGQRAAMLSLLRYNANLTKMKNTLISASQQLKAKLEFFHKSIQLDLERYSEQMTYGISSEKMLKAWKEMEEKAIHYAEVGVIGYLEDQIMSLHAEIMELQKSPYGRRQGDLMESLEQRAIDLYKQLKHRPSDHSYSDSTEMVKIIVHTVQSQDRVLKELFGHLSKLLGCKQKIIDLLPKVEVALSNIKEADNTVMFMQGKRQKEIWHLLKIACTQSSARSLVGSSLEGAVTPQTSAWLPPTSAEHDHSLSCVVTPQDGETSAQMIEENLNCLGHLSTIIHEANEEQGNSMMNLDWSWLTE
Regarding B2, the “coprecipitation / association with NIK” value with NIK is given as “able to coprecipitate NIK”. Moreover, the “induced reporter gene activity” value in experiment [1] is given as “approximately 4 fold”. Besides, in the experiment with TRAF2 (Flag-tagged protein coexpressed with HA-TRAF2, without NIK), the “association with TRAF2” value is reported as “failed to associate”. Further, the “coprecipitation of TRAF2 when NIK coexpressed” value in the experiment with TRAF2 (NIK coexpressed with IKK-α and TRAF2) was “strong coprecipitation”. For the same molecule, in the experiment with TRAF3, the “association with TRAF3” value is recorded as “failed to associate”. Besides, in experiment [2], the “maximal induction of luciferase activity” value is on record as 6 to 7 fold.

B3: NIK(624-947): kinase-inactive mutant of NIK comprising its TRAF2-interacting C-terminal domain (protein, UniProt Q99558 624-947, looked up, fragment)
chain: PLTAQAIQEGLRKEPIHRVSAAELGGKVNRALQQVGGLKSPWRGEYKEPRHPPPNQANYHQTLHAQPRELSPRAPGPRPAEETTGRAPKLQPPLPPEPPEPNKSPPLTLSKEESGMWEPLPLSSLEPAPARNPSSPERKATVPEQELQQLEIELFLNSLSQPFSLEEQEQILSCLSIDSLSLSDDSEKNPSKASQSSRDTLSSGVHSWSSQAEARSSSWNMVLARGRPTDTPSYFNGVKVQIQSLNGEHLHIREFHRVKVGDIATGISSQIPAAAFSLVTKDGQPVRYDMEVPDSGIDLQCTLAPDGSFAWSWRVKHGQLENRP
Take B3: the “TNF- and IL-1-induced reporter gene activation” value in experiment [1] is listed as “blocked”.
